Values of other authors, collected in article PMC8228819, “Comparison of a Short Linear Antimicrobial Peptide with Its Disulfide-Cyclized and Cyclotide-Grafted Variants against Clinically Relevant Pathogens” (Microorganisms, 2021).
“Also recorded” adds a separate entry of the source.

Tests used:
[1] = cited from earlier work
Source text: We therefore followed two cyclization strategies: (i) a simple disulfide-cyclization by introduction of N- and C-terminal cysteines, and (ii) grafting onto an extremely stable scaffold with three disulfide bridges and backbone cyclization. The MCoTI-II cyclotide scaffold was used because of its inherent non-cytotoxic nature. […] The linear peptide was ...

[2] = cited from earlier work; remark: listed apart in the source
Source text: These loops were previously found to be abl ... || Fractions f4 to f6 of [L6-optP7]Mco were initially tested against P. aeruginosa, E. coli, and MRSA (Table 1) using a rich media, Mueller–Hinton broth (MH), with all fractions displaying about the same moderate activity (within errors of the method). […] Calcium (Ca^2+) and magnesium (Mg^2+) often have the strongest effect on the antimicrobial activity of AMPs; their theoretical concentration in MH brot ...

red blood cells = settings: cited from earlier work
Source text: The 9mer AMP was grafted into loops 5 and 6 of MCoTI-II. These loops were previously found to be abl ...

Q: Which “Stability in human serum” value [1] does the source give for “Momordica trypsin inhibitor II (cyclo(SGSDGGVCPKILKKCRRDSDCPGACICRGNGYCG); also: three cystine-knot disulfides, pairing not given here; UniProt P82409 1-34, looked up) [MCoTI-II]” here?
A: The value was “high stability”.

Q: And the Antimicrobial activity [2]?
A: Its Antimicrobial activity is “does not exhibit any antimicrobial activity; also recorded: does not exhibit any antimicrobial effects”.

Q: What about the “Hemolytic activity towards red blood cells” value (red blood cells) of the same substance?
A: Its value is “does not show hemolytic activity”.
